The values below come from patent US20240376166A1 (BOSTON MEDICAL CENTER, published 2024).

This data set concerns the molecule itself. Put plainly: native gel of lysates from non-stressed cells (self-association; cells also hold endogenous NPM); FIG. 5B.

B1: flag-tagged NPM normal mimic (T86A-S88A-T95A-T234E-S242E) (other)
chain: MEDSMDMDMSPLRPQNYLFGCELKADKDYHFKVDNDENEHQLSLRTVSLGAGAKDELHIVEAEAMNYEGSPIKVTLATLKMSVQPAVALGGFEIAPPVVLRLKCGSGPVHISGQHLVAVEEDAESEDEEEEDVKLLSISGKRSAPGGGSKVPQKKVKLAADEDDDDDDEEDDDEDDDDDDFDDEEAEEKAPVKKSIRDTPAKNAQKSNQNGKDSKPSSTPRSKGQESFKKQEKEPKTPKGPESVEDIKAKMQASIEKGGSLPKVEAKFINYVKNCFRMTDQEAIQDLWQWRKSL
notes: Lentiviral expression in primary PTEC; also called normal mimic NPM; NrNPM; not shown: amino-terminal flag tag
Consider B1, for which the binding result is “binds”.
